# Experimental data from US11912789B2, “Peptide activating agent” (Interk Peptide Therapeutics Limited, priority 2018, dated 2024).
# Non-standard residues stand in square brackets, D forms with d. Residues, ends and D or L forms follow the SMILES beside them. No end group written: not given here. ξ: configuration not given here. ξGly(decyl) = CCCCCCCCCCC(N)C(=O)O; 2Adod = 2-amino-dodecanoic acid
# Tests used:
# Lck = target: T1, Lck (Homo sapiens, UniProt P06239); experiment: In vitro Lck activation kinase study (Eurofins); type: biochemical
# T1 construct: purchased Eurofins Pharma Discovery Services UK Limited
# Description: (§1) The ability of polypeptides of the present invention to activate Lck was examined in vitro. Lck is member of the Src family of tyrosine kinases. In vitro Lck activation kinase studies were conducted by Eurofins Pharma Discovery Services UK Limited (Dundee Technology Park, Dundee, United Kingdom) using ATP concentrations within 15 μM of the apparent Km in the presence of peptide substrate (KVEKIGEGTYGVVYK; (SEQ ID NO: 63)) and test polypeptide in semi-log dose ranges. All results in Examples X percentage Lck activity relative to control (100%).
# (§2) The ability of polypeptides of the present invention to activate Src family kinases was examined in vitro. Lck activation studies were carried out as described above and all Lck activity values are shown as percentage relative to control. In brief, Table 4 and Table 5 illustrate the selective activation of Lck kinase amongst the Src family kinases in the presence of the peptide RSKAKNPLY at 10 μM concentration.
# The effect of modification of cationic amino acid positions and substitutions of the peptide RSKAKNPLY was examined. In brief, peptides with amino acid sequence changes compared to the peptide Pep9 (RSKAKNPLY) were assessed for the ability to stimulate Lck activity. All results are shown as percentage relative to control (100%).
# Lck activity was evaluated as described in Example 1 and all Lck activity values are shown as percentage relative to control (100%). For ease of description, the polyamide moiety is referred to by “nCy” wherein n is the number of repeating units of the polyamide moiety, Cy is the number of carbon atoms of the R group in each repeating unit, and each R group is a saturated, linear carbon chain. Thus, in the present example, “4C10” is to be taken to refer to a polyamide moiety as shown in Scheme 1 above which has 4 repeating units (n=4) in which the R group of each repeating unit is a saturated, carbon side chain that is 10 carbon atoms in length (e.g. four 2-amino dodecanoic acids).
# Lck(h) = target: T2, Lck(h) (Homo sapiens, UniProt P06239); experiment: Western blot of Lck auto-phosphorylation at Y394 (anti-pY394 Lck); type: biochemical; conditions: 10 μM and 30 μM; ATP, no peptide substrate; FIG. 2
# T2 construct: purchased Eurofins Pharma Discovery Services UK Limited
# Description: Western blot studies were performed by Eurofins Pharma Discovery Services UK Limited (Dundee, United Kingdom). In brief, Lck(h) was incubated in the presence of test peptide employing standard KinaseProfiler™ reaction conditions (Eurofins Pharma Discovery Services UK Limited) and an ATP concentration within 15 μM of the Km. Reactions were allowed to proceed for 40 minutes at room temperature before being stopped by the addition of SDS-sample buffer. In each case the Lck enzyme was diluted to yield 20 ng per 25 μl reaction. Appropriate controls in the absence of compound and peptide were also run as well as an untreated sample of both the Lck(h) and Lck(h) activated kinases. The resulting samples were then subjected to SDS-PAGE and western blot analysis using the antibodies 4G10 (anti-phospho-tyrosine antibody) (see FIG. 3) and anti-pY394 Lck (R&D Systems MAB7500) (see FIG. 2). An additional blot using the secondary detection antibody (anti-mouse-HRP) was also performed. The membranes were stained by Ponceau S to verify sample loading and effective protein transfer. The 4G10 antibody is a general anti-phospho-tyrosine antibody and there are several tyrosine residues in Lck but only one auto-phosphorylating tyrosine residue, i.e., at position Y394. […] Samples were as follows (numbers correspond to the lanes on the gel): • 1. Molecular weight markers • 2. […]
# wild-type Jurkat cells = experiment: IL-2, IL-12 secretion and IL-2Ra expression in Jurkat cells (anti-CD3/anti-CD28), ELISA; type: cell-based, human; conditions: 48 hours; for IL-2 secretion: Biotin-CD3, CD28 and avidin stimulation, supernatant ELISA, FIG. 14, FIG. 42A; for IL-12 secretion: Biotin-anti-CD3, anti-CD28 and avidin, FIG. 42B
# Description: Cells were seeded at 1 million per well (12 well plate, 2 mL volume) and stimulated with Biotin-CD3, CD28, and avidin (5:5:1.25 μg). The cells were then treated with RSKAKNPLYR-(2Adod)4-NH2 at three concentrations as indicated plus vehicle control. The samples were then incubated for 48 hours at 37° C. after which supernatants were analysed for IL-2 content by ELISA.
# Shown are Jurkat wild type (WT) cells and Lck deficient Jurkat cells (JCaM1.6) stimulated with anti-CD3/anti-CD28. 12 well plates were coated with anti-CD3 (5 μg/mL) solution made up in PBS (200 μL) and incubated at 37° C. overnight. The next day the anti-CD3 solution was aspirated and wells gently washed twice with media (1 mL, 10 minutes). Jurkat cells (WT and Lck Deficient) were seeded at 1 million per well in anti-CD3 coated 12 well plates, further stimulated with anti-CD28 (5 ug/mL) and at time zero treated with RSKAKNPLYR-(2Adod)4-NH2 (2.5 μM). Cells were incubated for 72 hours. For the IL-2 assay, left, supernatants were analysed for IL-2 content by ELISA. For the IL-2Ra assay, right, cells were lysed with 100 μL of lysis solution containing protease and phosphatase inhibitors as well as PP2 (10 μM). The collected cell lysates were subjected to the BCA protein assay. Cell lysates (40 μg protein) were then analysed for IL-2Ra by ELISA.
# In two separate experiments, 5 million unstimulated JCam1.6 (Lck deficient) and 5 million 6.1 (WT) Jurkat cells, respectively, were seeded in T25 flasks. The cells were treated with RSKAKNPLYR-(2Adod)4-NH2 at 5 μM, 10 μM and 20 μM concentrations for 1 hour after which the cell suspensions were centrifuged and washed twice with fresh media. For each experiment, a mixture of Biotin-anti-CD3 and Avidin (5:1.25 ug) in 500 μL of media was added to the wells of a 12 well plate. After 10 minutes the unstimulated, washed cells were seeded at 1 million cells per well and the cell suspension made up to 2 mL volume with media. The samples were then further stimulated with anti-CD28 (5 ug/mL), after which the samples were incubated for 48 hours at 37° C. The supernatants (100 μL, n=3), were then analyzed for IL-2 content.
# 12 well plates were coated with anti-CD3 (5 μg/mL) solution made up in PBS (200 μL) and incubated at 37° C. overnight. […] Cells were incubated for 24 hours and supernatants were then analysed for IL-2 by ELISA.
# 12 well plates were coated with anti-CD3 (5 μg/mL) solution made up in PBS (200 μL) and incubated at 37° C. overnight. […] Cell lysates (40 μg protein) were then analysed for IL-2Ra by ELISA.
# 12 well plates were coated with anti-CD3 (5 μg/mL) solution made up in PBS (200 μL) and incubated at 37° C. overnight. […] Cells were incubated for 72 hours and the supernatants were then analysed for IL-2 by ELISA. […]
# Blk = target: T3, Blk (Homo sapiens, UniProt P51451); experiment: In vitro Src family kinase activation study (Eurofins); type: biochemical; conditions: Table 5
# T3 construct: purchased Eurofins Pharma Discovery Services UK Limited
# Description: as §1, §2
# Fgr = target: T4, Fgr (Homo sapiens, UniProt P09769); experiment: as above; type: biochemical; conditions: Table 5
# T4 construct: purchased Eurofins Pharma Discovery Services UK Limited
# Description: as §1, §2
# Fyn = target: T5, Fyn (Homo sapiens, UniProt P06241); experiment: as above; type: biochemical; conditions: Table 5
# T5 construct: purchased Eurofins Pharma Discovery Services UK Limited
# Description: as §1, §2
# Lyn = target: T6, Lyn (Homo sapiens, UniProt P07948); experiment: as above; type: biochemical; conditions: Table 5
# T6 construct: purchased Eurofins Pharma Discovery Services UK Limited
# Description: as §1, §2
# Yes = target: T7, Yes (Homo sapiens, UniProt P07947); experiment: as above; type: biochemical; conditions: Table 5
# T7 construct: purchased Eurofins Pharma Discovery Services UK Limited
# Description: as §1, §2
# cSRC = target: T8, cSRC (Homo sapiens, UniProt P12931); experiment: as above; type: biochemical; conditions: Table 5
# T8 construct: purchased Eurofins Pharma Discovery Services UK Limited
# Description: as §1, §2
# Hck = target: T9, Hck (Homo sapiens, UniProt P08631); experiment: as above; type: biochemical; conditions: Table 5
# T9 construct: purchased Eurofins Pharma Discovery Services UK Limited
# Description: as §1
# The ability of polypeptides of the present invention to activate Src family kinases was examined in vitro. Lck activation studies were carried out as described above and all Lck activity values are shown as percentage relative to control. […]
# T1 sequence (P06239 whole entry): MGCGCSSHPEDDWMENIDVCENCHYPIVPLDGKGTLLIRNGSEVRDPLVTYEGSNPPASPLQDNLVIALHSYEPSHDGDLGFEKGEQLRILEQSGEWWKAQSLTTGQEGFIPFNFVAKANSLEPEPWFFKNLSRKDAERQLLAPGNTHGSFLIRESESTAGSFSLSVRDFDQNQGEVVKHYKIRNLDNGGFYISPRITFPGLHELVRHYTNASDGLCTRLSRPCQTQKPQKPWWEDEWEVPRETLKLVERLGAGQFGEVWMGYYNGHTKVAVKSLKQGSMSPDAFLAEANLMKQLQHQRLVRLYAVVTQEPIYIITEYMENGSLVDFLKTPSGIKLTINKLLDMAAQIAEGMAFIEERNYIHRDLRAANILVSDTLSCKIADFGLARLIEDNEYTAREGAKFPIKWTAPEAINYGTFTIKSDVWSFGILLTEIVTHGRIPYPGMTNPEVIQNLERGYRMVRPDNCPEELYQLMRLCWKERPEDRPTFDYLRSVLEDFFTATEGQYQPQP
# T6 sequence (P07948 whole entry, species assumed): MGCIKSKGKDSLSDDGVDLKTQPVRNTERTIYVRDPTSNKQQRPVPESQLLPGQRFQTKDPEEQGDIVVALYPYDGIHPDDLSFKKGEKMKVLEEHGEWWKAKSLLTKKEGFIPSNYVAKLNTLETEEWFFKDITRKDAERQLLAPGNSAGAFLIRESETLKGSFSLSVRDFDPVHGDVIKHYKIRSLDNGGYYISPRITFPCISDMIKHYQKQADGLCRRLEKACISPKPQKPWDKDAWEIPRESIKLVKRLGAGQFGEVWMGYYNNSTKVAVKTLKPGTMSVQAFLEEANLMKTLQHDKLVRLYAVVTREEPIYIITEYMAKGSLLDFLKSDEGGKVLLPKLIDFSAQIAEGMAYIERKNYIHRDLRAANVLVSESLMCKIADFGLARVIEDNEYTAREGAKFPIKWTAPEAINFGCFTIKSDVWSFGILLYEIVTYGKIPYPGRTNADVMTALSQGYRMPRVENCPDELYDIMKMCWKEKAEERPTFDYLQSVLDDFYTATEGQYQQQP
# T3 sequence (P51451 whole entry, species assumed): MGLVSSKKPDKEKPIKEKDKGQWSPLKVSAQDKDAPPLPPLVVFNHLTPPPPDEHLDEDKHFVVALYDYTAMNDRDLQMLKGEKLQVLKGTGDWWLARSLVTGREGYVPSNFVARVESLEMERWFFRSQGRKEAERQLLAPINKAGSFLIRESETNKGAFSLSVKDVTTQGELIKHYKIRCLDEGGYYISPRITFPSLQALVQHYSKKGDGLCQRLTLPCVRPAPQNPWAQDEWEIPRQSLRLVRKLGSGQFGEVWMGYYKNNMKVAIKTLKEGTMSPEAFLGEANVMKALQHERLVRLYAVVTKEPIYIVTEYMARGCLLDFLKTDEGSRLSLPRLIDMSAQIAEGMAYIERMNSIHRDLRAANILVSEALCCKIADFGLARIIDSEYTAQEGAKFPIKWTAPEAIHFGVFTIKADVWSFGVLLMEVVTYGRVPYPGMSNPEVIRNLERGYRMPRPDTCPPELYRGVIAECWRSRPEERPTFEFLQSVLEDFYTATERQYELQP
# T9 sequence (P08631 whole entry, species assumed): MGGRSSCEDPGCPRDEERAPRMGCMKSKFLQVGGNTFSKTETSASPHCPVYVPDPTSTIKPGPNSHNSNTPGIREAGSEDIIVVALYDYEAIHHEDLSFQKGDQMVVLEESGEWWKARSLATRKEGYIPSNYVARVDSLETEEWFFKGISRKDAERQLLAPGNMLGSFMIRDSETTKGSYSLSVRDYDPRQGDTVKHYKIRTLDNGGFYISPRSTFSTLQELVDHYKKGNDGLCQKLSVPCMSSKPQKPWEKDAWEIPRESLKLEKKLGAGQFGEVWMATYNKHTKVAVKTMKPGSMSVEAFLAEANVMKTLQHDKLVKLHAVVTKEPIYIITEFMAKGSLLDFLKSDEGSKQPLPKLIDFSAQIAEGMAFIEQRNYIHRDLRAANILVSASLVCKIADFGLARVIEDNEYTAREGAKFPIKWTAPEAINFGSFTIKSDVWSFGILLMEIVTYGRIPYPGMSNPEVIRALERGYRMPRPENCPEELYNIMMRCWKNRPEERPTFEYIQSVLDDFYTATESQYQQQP
# T2 sequence (P06239 whole entry): as the sequence (P06239 whole entry) above
# T7 sequence (P07947 whole entry, species assumed): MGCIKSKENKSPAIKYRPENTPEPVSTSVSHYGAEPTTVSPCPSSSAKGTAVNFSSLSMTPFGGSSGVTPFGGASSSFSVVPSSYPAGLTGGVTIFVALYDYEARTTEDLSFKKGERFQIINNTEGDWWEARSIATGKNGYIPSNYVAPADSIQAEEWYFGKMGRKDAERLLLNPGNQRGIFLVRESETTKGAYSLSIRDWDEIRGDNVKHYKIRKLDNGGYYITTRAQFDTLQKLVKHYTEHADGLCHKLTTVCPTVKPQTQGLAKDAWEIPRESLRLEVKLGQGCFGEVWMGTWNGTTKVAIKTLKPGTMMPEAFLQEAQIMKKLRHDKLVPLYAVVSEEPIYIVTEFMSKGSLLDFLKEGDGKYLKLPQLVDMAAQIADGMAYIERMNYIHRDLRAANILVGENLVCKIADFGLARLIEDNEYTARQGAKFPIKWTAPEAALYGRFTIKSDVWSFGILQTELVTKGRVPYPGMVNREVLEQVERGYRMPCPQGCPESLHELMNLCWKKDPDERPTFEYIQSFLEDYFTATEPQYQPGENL
# T5 sequence (P06241 whole entry, species assumed): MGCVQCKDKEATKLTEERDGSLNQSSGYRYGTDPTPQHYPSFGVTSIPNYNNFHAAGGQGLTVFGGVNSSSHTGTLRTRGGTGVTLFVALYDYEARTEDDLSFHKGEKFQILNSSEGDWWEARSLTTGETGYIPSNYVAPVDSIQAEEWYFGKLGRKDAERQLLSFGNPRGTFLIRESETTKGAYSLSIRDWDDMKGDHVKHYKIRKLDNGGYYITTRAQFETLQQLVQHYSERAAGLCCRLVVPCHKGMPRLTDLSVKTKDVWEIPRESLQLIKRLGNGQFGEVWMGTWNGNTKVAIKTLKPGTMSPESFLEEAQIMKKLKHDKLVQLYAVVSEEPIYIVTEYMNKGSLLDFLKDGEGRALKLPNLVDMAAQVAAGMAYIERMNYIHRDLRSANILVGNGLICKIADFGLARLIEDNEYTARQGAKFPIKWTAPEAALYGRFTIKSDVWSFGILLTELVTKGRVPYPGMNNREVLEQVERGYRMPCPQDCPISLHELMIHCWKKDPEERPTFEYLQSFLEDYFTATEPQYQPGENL
compound,measurement,setting,value
CCCCCCCCCCC(N)C(=O)O (stereo not drawn) [H-(2Adod)1-OH],Lck activation above control (1 μM),Lck; Table 7,0%
same,Lck activation above control (10 μM),"Lck; 10 μM, Table 7",0%
RSKAKNPLY,auto-phosphorylation of Lck at Y394,Lck(h),induces a dose-dependent auto-phosphorylation of Lck
same,IL-2 secretion,wild-type Jurkat cells,increase IL-2 secretion
same,IL-12 secretion,wild-type Jurkat cells,increase IL-12 secretion
CCCCCCCCCCC(N)C(=O)NC(CCCCCCCCCC)C(=O)O (stereo not drawn) [H-(2Adod)2-OH],Lck activation above control (1 μM),Lck; Table 7,0%
same,Lck activation above control (10 μM),"Lck; 10 μM, Table 7",18%
CCCCCCCCCCC(N)C(=O)NC(CCCCCCCCCC)C(=O)NC(CCCCCCCCCC)C(=O)O (stereo not drawn) [H-(2Adod)3-OH],Lck activation above control (1 μM),Lck; Table 7,0%
same,Lck activation above control (10 μM),"Lck; 10 μM, Table 7",0%
"RSKAKNPLYR-(2Adod)4-OH (RSKAKNPLYR-{2Adod-2Adod-2Adod-2Adod-OH}) [… coupled to four 2-amino dodecanoic acid residues, non-amidated]",Lck activation above control (1 μM),Lck; Table 9,252%
same,Lck activation above control (10 μM),"Lck; 10 μM, Table 9",395%
CCCCCCCCCCC(N)C(=O)NC(CCCCCCCCCC)C(=O)NC(CCCCCCCCCC)C(=O)NC(CCCCCCCCCC)C(=O)O (stereo not drawn) [H-(2Adod)4-OH] (H-[ξGly(decyl)][ξGly(decyl)][ξGly(decyl)][ξGly(decyl)]-OH),Lck activation above control (1 μM),Lck; Table 7,0%
same,Lck activation above control (10 μM),"Lck; 10 μM, Table 7",0%
"DSEAENPLYD-(2Adod)4-NH2 (DSEAENPLYD-{2Adod-2Adod-2Adod-2Adod-NH2}) [DSEAENPLYD-(2-Adod)4-NH2, anionic residues at 1, 3, 5, 10 in place of Arg and Lys]",Lck activation (FIG. 30),Lck; cationic versus anionic residues,does not increase the activity of Lck
RSKAKNPLYR-1C10-OH (RSKAKNPLYR-{2Adod-OH}) [… coupled at the C-terminal end toone 2-amino dodecanoic acid residue],Lck Activity 10 μM,"Lck; 10 μM, Table 8",221%
same,Lck Activity 30 μM,"Lck; 30 μM, Table 8",277%
RSKAKNPLYR,auto-phosphorylation of Lck at Y394,Lck(h),does not increase
same,IL-2 secretion,wild-type Jurkat cells,increase IL-2 secretion
same,IL-12 secretion,wild-type Jurkat cells,not
RVKVKVVVV,"Lck Activity (1 μM), kinase Blk",Blk; 1 μM,0%
same,"Lck Activity (10 μM), kinase Blk",Blk; 10 μM,0%
same,"Lck Activity (1 μM), kinase Fgr",Fgr; 1 μM,0%
same,"Lck Activity (10 μM), kinase Fgr",Fgr; 10 μM,0%
same,"Lck Activity (1 μM), kinase Fyn",Fyn; 1 μM,0%
same,"Lck Activity (10 μM), kinase Fyn",Fyn; 10 μM,0%
same,"Lck Activity (1 μM), kinase Lyn",Lyn; 1 μM,0%
same,"Lck Activity (10 μM), kinase Lyn",Lyn; 10 μM,0%
same,"Lck Activity (1 μM), kinase Yes",Yes; 1 μM,0%
same,"Lck Activity (10 μM), kinase Yes",Yes; 10 μM,0%
same,"Lck Activity (1 μM), kinase c-Src",cSRC; 1 μM,0%
same,"Lck Activity (10 μM), kinase c-Src",cSRC; 10 μM,0%
same,"Lck Activity (1 μM), kinase Hck",Hck; 1 μM,0%
same,"Lck Activity (10 μM), kinase Hck",Hck; 10 μM,0%
